Assay results from patent US20220089710A1, “Method of Treating Signs and Symptoms of Osteoarthritis” (Pfizer Inc., priority 2019, published 2022).

Legend:
[1] = target: T1, NGF (Homo sapiens, UniProt P01138); conditions: cited from earlier work
[2] = target: T1, NGF; conditions: cell culture models; cited from earlier work
[3] = tested on: patients with osteoarthritis (OA) of the knee or hip; test: Example 3: adjudicated joint safety outcomes (patient-level and joint-level) and total joint replacements, Safety Population; type: in vivo, human; conditions: for rapidly progressive OA (types 1 and 2 combined): % of patients: any adjudicated RPOA
Description: Central radiology readers (Central Readers) may be board certified radiologists or have the international equivalent as musculoskeletal radiologists. The Central Readers may be governed by an imaging atlas and an imaging Charter which includes a specific description of the scope of their responsibilities. Central Readers may review the radiology images at Screening for assessment of eligibility (including determination of Kellgren-Lawrence Grade) and identification of exclusionary joint conditions such as rapidly progressive osteoarthritis, atrophic or hypotrophic osteoarthritis, subchondral insufficiency fractures (spontaneous osteonecrosis of the knee [SPONK]), primary osteonecrosis and pathological fractures. After start of treatment, the Central Reader may review radiology images for diagnosis of joint conditions that would warrant further evaluation by the Adjudication Committee such as possible or probable rapidly progressive osteoarthritis, subchondral insufficiency fractures (spontaneous osteonecrosis of the knee [SPONK]), primary osteonecrosis or pathological fracture.
For subjects who are identified with a possible or probable joint event (i.e., rapidly progressive osteoarthritis, subchondral insufficiency fractures, spontaneous osteonecrosis of the knee (SPONK), primary osteonecrosis or pathological fracture) and subjects undergoing total joint replacement for any reason, all images and other source documentation may be provided to the blinded Adjudication Committee for review and adjudication of the event. The Adjudication Committee's assessment of the event may represent the final classification of the event.
This study was designed with a total (post-randomization) duration of 80 weeks and consisted of three periods: Screening (up to a maximum of 37 days), Double-blind Treatment (56 weeks), and Safety Follow-up (24 weeks) (FIG. 1). The Screening Period included a Washout Period (lasting 2-30 days) if required, and an Initial Pain Assessment Period (7 days prior to Randomization/Baseline; minimum 3 days).

[4] = 2.5 mg SC, observation time-adjusted analysis
[5] = 2.5 mg SC, primary outcome per subject
[6] = 5 mg SC, observation time-adjusted analysis
[7] = 5 mg SC, primary outcome per subject
[8] = tanezumab 2.5 mg (N = 1002), joint-level
[9] = tanezumab 5 mg (N = 998), joint-level

T1 sequence (P01138 122-241): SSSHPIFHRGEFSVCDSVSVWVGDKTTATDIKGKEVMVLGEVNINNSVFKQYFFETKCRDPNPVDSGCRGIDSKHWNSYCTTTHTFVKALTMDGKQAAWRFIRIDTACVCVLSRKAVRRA

## tanezumab: humanized immunoglobulin G Type 2 (IgG2) monoclonal antibody directed against human nerve growth factor (NGF); SEQ ID NOs: 9 or 11 and 10
[1]
  binding to human NGF: high affinity and specificity
[2]
  blocking of the activity of NGF: blocks the activity of NGF effectively
[3]; 2.5 mg SC
  Observation time-adjusted incidence of patients with ≥1 reported TJR: (51.8) /1000 patient-years
  Pathological Fracture: observation time-adjusted rate: (0) /1000 patient-years
  Patients analyzed by the Adjudication Committee: n: 115
  Primary Composite Joint Safety Endpoint: rate difference vs. NSAID: 22.5
  Primary Osteonecrosis: observation time-adjusted rate: (0) /1000 patient-years
  Rapidly Progressive OA type 1: observation time-adjusted rate: (28.4) /1000 patient-years
  Rapidly Progressive OA type 1: rate difference vs. NSAID: 17.6
  Rapidly Progressive OA type 2: rate difference vs. NSAID: 1.9
  Rapidly Progressive OA: rate difference vs. NSAID: 19.6
  Secondary Composite Joint Safety Endpoint: observation time-adjusted rate: (8.8) /1000 patient-years
  Secondary Composite Joint Safety Endpoint: rate difference vs. NSAID: 3.8
  Subchondral Insufficiency Fracture: observation time-adjusted rate: (5.8) /1000 patient-years
  Subchondral Insufficiency Fracture: rate difference vs. NSAID: 1.9
  TJR: rate difference vs. NSAID: 27.2
  patients with ≥1 reported TJR: number: 53
  rapidly progressive OA (types 1 and 2 combined): % of patients: 3.2%
[3]; [4]
  Pathological Fracture: n: 0
  Primary Composite Joint Safety Endpoint: n: 38
  Primary Osteonecrosis: n: 0
  Rapidly Progressive OA type 1: n: 29
  Rapidly Progressive OA: n: 32
  Secondary Composite Joint Safety Endpoint: n: 9
  Subchondral Insufficiency Fracture: n: 6
[3]; [5]
  Normal Progression of OA: %: (6.6%)
  Normal Progression of OA: n: 66
  Not enough information to determine Rapid vs. Normal Progression of OA: %: (0.2%)
  Not enough information to determine Rapid vs. Normal Progression of OA: n: 2
  Other Joint Outcome: %: (0.9%)
  Other Joint Outcome: n: 9
  Pathological Fracture: n: 0
  Primary Composite Joint Safety Endpoint: %: 3.8% and (3.8%)
  Primary Composite Joint Safety Endpoint: n: 38
  Primary Osteonecrosis: n: 0
  Rapidly Progressive OA type 1: %: (2.9%)
  Rapidly Progressive OA type 1: n: 29
  Rapidly Progressive OA type 2: %: (0.3%)
  Rapidly Progressive OA: %: (3.2%)
  Rapidly Progressive OA: n: 32
  Secondary Composite Joint Safety Endpoint: %: (0.9%)
  Secondary Composite Joint Safety Endpoint: n: 9
  Subchondral Insufficiency Fracture: %: (0.6%)
  Subchondral Insufficiency Fracture: n: 6
[3]; 5 mg SC
  Observation time-adjusted incidence of patients with ≥1 reported TJR: (78.7) /1000 patient-years
  Pathological Fracture: observation time-adjusted rate: (0) /1000 patient-years
  Patients analyzed by the Adjudication Committee: n: 171
  Primary Composite Joint Safety Endpoint: rate difference vs. NSAID: 56.7
  Primary Osteonecrosis: observation time-adjusted rate: (1.0) /1000 patient-years
  Rapidly Progressive OA type 1: observation time-adjusted rate: (49.1) /1000 patient-years
  Rapidly Progressive OA type 1: rate difference vs. NSAID: 38.2
  Rapidly Progressive OA type 2: rate difference vs. NSAID: 12.9
  Rapidly Progressive OA: rate difference vs. NSAID: 51.5
  Secondary Composite Joint Safety Endpoint: observation time-adjusted rate: (21.8) /1000 patient-years
  Secondary Composite Joint Safety Endpoint: rate difference vs. NSAID: 16.9
  Subchondral Insufficiency Fracture: observation time-adjusted rate: (6.9) /1000 patient-years
  Subchondral Insufficiency Fracture: rate difference vs. NSAID: 3.0
  TJR: rate difference vs. NSAID: 54.0
  patients with ≥1 reported TJR: number: 79
  rapidly progressive OA (types 1 and 2 combined): % of patients: 6.3%
[3]; [6]
  Pathological Fracture: n: 0
  Primary Composite Joint Safety Endpoint: n: 71
  Primary Osteonecrosis: n: 1
  Rapidly Progressive OA type 1: n: 49
  Rapidly Progressive OA type 2: n: 14
  Rapidly Progressive OA: n: 63
  Secondary Composite Joint Safety Endpoint: n: 22
  Subchondral Insufficiency Fracture: n: 7
[3]; [7]
  Normal Progression of OA: %: (7.9%)
  Normal Progression of OA: n: 79
  Not enough information to determine Rapid vs. Normal Progression of OA: n: 0
  Other Joint Outcome: %: (2.1%)
  Other Joint Outcome: n: 21
  Pathological Fracture: n: 0
  Primary Composite Joint Safety Endpoint: %: 7.1% and (7.1%)
  Primary Composite Joint Safety Endpoint: n: 71
  Primary Osteonecrosis: %: (0.1%)
  Primary Osteonecrosis: n: 1
  Rapidly Progressive OA type 1: %: (4.9%)
  Rapidly Progressive OA type 1: n: 49
  Rapidly Progressive OA type 2: %: 1.4% and (1.4%)
  Rapidly Progressive OA type 2: n: 14
  Rapidly Progressive OA: %: (6.3%)
  Rapidly Progressive OA: n: 63
  Secondary Composite Joint Safety Endpoint: %: (2.2%)
  Secondary Composite Joint Safety Endpoint: n: 22
  Subchondral Insufficiency Fracture: %: (0.7%)
  Subchondral Insufficiency Fracture: n: 7
[3]; [8]
  Rapidly Progressive OA type 1: Associated with TJR No, %: (90.0%)
  Rapidly Progressive OA type 1: Associated with TJR Yes, %: (10.0%)
  Rapidly Progressive OA type 1: Baseline Kellgren-Lawrence Grade of Affected Joint 0, %: (3.3%)
  Rapidly Progressive OA type 1: Baseline Kellgren-Lawrence Grade of Affected Joint 1, %: (20.0%)
  Rapidly Progressive OA type 1: Baseline Kellgren-Lawrence Grade of Affected Joint 2, %: (36.7%)
  Rapidly Progressive OA type 1: Baseline Kellgren-Lawrence Grade of Affected Joint 3, %: (40.0%)
  Rapidly Progressive OA type 1: Joint affected Hip, %: (13.3%)
  Rapidly Progressive OA type 1: Joint affected Knee, %: (86.7%)
  Rapidly Progressive OA type 2: Associated with TJR No, %: (66.7%)
  Rapidly Progressive OA type 2: Associated with TJR Yes, %: (33.3%)
  Rapidly Progressive OA type 2: Baseline Kellgren-Lawrence Grade of Affected Joint 3, %: (33.3%)
  Rapidly Progressive OA type 2: Baseline Kellgren-Lawrence Grade of Affected Joint 4, %: (66.7%)
  Rapidly Progressive OA type 2: Joint affected Hip, %: (33.3%)
  Rapidly Progressive OA type 2: Joint affected Knee, %: (66.7%)
  Subchondral Insufficiency Fracture: Associated with TJR No, %: (100.0%)
  Subchondral Insufficiency Fracture: Baseline Kellgren-Lawrence Grade of Affected Joint 2, %: (33.3%)
  Subchondral Insufficiency Fracture: Baseline Kellgren-Lawrence Grade of Affected Joint 3, %: (66.7%)
  Subchondral Insufficiency Fracture: Joint affected Hip, %: (33.3%)
  Subchondral Insufficiency Fracture: Joint affected Knee, %: (66.7%)
[3]; [9]
  Rapidly Progressive OA type 1: Associated with TJR No, %: (84.9%)
  Rapidly Progressive OA type 1: Associated with TJR Yes, %: (15.1%)
  Rapidly Progressive OA type 1: Baseline Kellgren-Lawrence Grade of Affected Joint 0, %: (3.8%)
  Rapidly Progressive OA type 1: Baseline Kellgren-Lawrence Grade of Affected Joint 1, %: (20.8%)
  Rapidly Progressive OA type 1: Baseline Kellgren-Lawrence Grade of Affected Joint 2, %: (43.4%)
  Rapidly Progressive OA type 1: Baseline Kellgren-Lawrence Grade of Affected Joint 3, %: (30.2%)
  Rapidly Progressive OA type 1: Baseline Kellgren-Lawrence Grade of Affected Joint Not Available, %: (1.9%)
  Rapidly Progressive OA type 1: Joint affected Hip, %: (15.1%)
  Rapidly Progressive OA type 1: Joint affected Knee, %: (83.0%)
  Rapidly Progressive OA type 1: Joint affected Shoulder, %: (1.9%)
  Rapidly Progressive OA type 2: Associated with TJR No, %: (43.8%)
  Rapidly Progressive OA type 2: Associated with TJR Yes, %: (56.3%)
  Rapidly Progressive OA type 2: Baseline Kellgren-Lawrence Grade of Affected Joint 0, %: (12.5%)
  Rapidly Progressive OA type 2: Baseline Kellgren-Lawrence Grade of Affected Joint 1, %: (6.3%)
  Rapidly Progressive OA type 2: Baseline Kellgren-Lawrence Grade of Affected Joint 2, %: (6.3%)
  Rapidly Progressive OA type 2: Baseline Kellgren-Lawrence Grade of Affected Joint 3, %: (31.3%)
  Rapidly Progressive OA type 2: Baseline Kellgren-Lawrence Grade of Affected Joint 4, %: (37.5%)
  Rapidly Progressive OA type 2: Baseline Kellgren-Lawrence Grade of Affected Joint Not Available, %: (6.3%)
  Rapidly Progressive OA type 2: Joint affected Hip, %: (43.8%)
  Rapidly Progressive OA type 2: Joint affected Knee, %: (50.0%)
  Rapidly Progressive OA type 2: Joint affected Shoulder, %: (6.3%)
  Subchondral Insufficiency Fracture: Associated with TJR No, %: (57.1%)
  Subchondral Insufficiency Fracture: Associated with TJR Yes, %: (42.9%)
  Subchondral Insufficiency Fracture: Baseline Kellgren-Lawrence Grade of Affected Joint 0, %: (14.3%)
  Subchondral Insufficiency Fracture: Baseline Kellgren-Lawrence Grade of Affected Joint 1, %: (14.3%)
  Subchondral Insufficiency Fracture: Baseline Kellgren-Lawrence Grade of Affected Joint 2, %: (57.1%)
  Subchondral Insufficiency Fracture: Baseline Kellgren-Lawrence Grade of Affected Joint 3, %: (14.3%)
  Subchondral Insufficiency Fracture: Joint affected Hip, %: (14.3%)
  Subchondral Insufficiency Fracture: Joint affected Knee, %: (85.7%)
